This note sets out measurements from article PMC5757783.

In general, stoichiometry N refers to a count of units in the complex or per binding partner.

The target of the test is histone H2A-N38C (Xenopus laevis). The test is described as follows: cross-linking.

With histone H2A-N38C (natural protein), the stoichiometry N was 2.
